# In publication PMC3154423:
# Key:
# Assay in all cases: ITC
# [1] = biological target: Jun bZIP K268A;Fos bZIP R157A (human;human, UniProt P05412;P01100 252-315;137-200, K268A|R157A)
# [2] = biological target: Jun bZIP R259A;Fos bZIP K153A (human;human, UniProt P05412;P01100 252-315;137-200, R259A|K153A)
# [3] = biological target: Jun bZIP K268A;Fos bZIP R143A (human;human, UniProt P05412;P01100 252-315;137-200, K268A|R143A)
# [4] = biological target: Jun bZIP R272A;Fos bZIP K148A (human;human, UniProt P05412;P01100 252-315;137-200, R272A|K148A)
# Chain of Jun bZIP R272A;Fos bZIP K148A (P05412 252-315 R272A, chain 1 of 2): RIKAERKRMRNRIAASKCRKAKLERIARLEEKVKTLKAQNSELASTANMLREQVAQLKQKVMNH
# Chain of Jun bZIP R272A;Fos bZIP K148A (P01100 137-200 K148A, chain 2 of 2): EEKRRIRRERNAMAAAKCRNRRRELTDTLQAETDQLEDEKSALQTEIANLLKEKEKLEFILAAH
# [5] = biological target: Jun bZIP K258A;Fos bZIP K153A (human;human, UniProt P05412;P01100 252-315;137-200, K258A|K153A)
# Chain of Jun bZIP K258A;Fos bZIP K153A (P05412 252-315 K258A, chain 1 of 2): as the sequence (P05412 252-315 R272A, chain 1 of 2) above, with K7A, A21R counted along it
# Chain of Jun bZIP K258A;Fos bZIP K153A (P01100 137-200 K153A, chain 2 of 2): as the sequence (P01100 137-200 K148A, chain 2 of 2) above, with A12K, K17A counted along it
# [6] = biological target: Jun bZIP R261A;Fos bZIP K148A (human;human, UniProt P05412;P01100 252-315;137-200, R261A|K148A)
# Chain of Jun bZIP R261A;Fos bZIP K148A (P05412 252-315 R261A, chain 1 of 2): as the sequence (P05412 252-315 R272A, chain 1 of 2) above, with R10A, A21R counted along it
# Chain of Jun bZIP R261A;Fos bZIP K148A (P01100 137-200 K148A, chain 2 of 2): as the sequence (P01100 137-200 K148A, chain 2 of 2) above
# Chain of Jun bZIP R259A;Fos bZIP K153A (P05412 252-315 R259A, chain 1 of 2): as the sequence (P05412 252-315 R272A, chain 1 of 2) above, with R8A, A21R counted along it
# Chain of Jun bZIP R259A;Fos bZIP K153A (P01100 137-200 K153A, chain 2 of 2): as the sequence (P01100 137-200 K148A, chain 2 of 2) above, with A12K, K17A counted along it
# Chain of Jun bZIP K268A;Fos bZIP R143A (P05412 252-315 K268A, chain 1 of 2): as the sequence (P05412 252-315 R272A, chain 1 of 2) above, with K17A, A21R counted along it
# Chain of Jun bZIP K268A;Fos bZIP R143A (P01100 137-200 R143A, chain 2 of 2): as the sequence (P01100 137-200 K148A, chain 2 of 2) above, with R7A, A12K counted along it
# Chain of Jun bZIP K268A;Fos bZIP R157A (P05412 252-315 K268A, chain 1 of 2): as the sequence (P05412 252-315 R272A, chain 1 of 2) above, with K17A, A21R counted along it
# Chain of Jun bZIP K268A;Fos bZIP R157A (P01100 137-200 R157A, chain 2 of 2): as the sequence (P01100 137-200 K148A, chain 2 of 2) above, with A12K, R21A counted along it
binder,measurement,setting,value
TRE duplex 15-mer (dsDNA) DNA 1: CGCGTGACTCACCCC DNA 2: GGGGTGAGTCACGCG,Kd,[1],600 ± 30 nM
same,Kd,[2],1720 ± 150 nM
same,Kd,[3],720 ± 10 nM
same,Kd,[4],710 ± 20 nM
same,Kd,[5],540 ± 30 nM
same,Kd,[6],950 ± 60 nM
